Data on 2 proteins can be found in publication doi:10.1101/2023.04.24.538129 (bioRxiv, 2023).

This data set deals with the molecule itself. Briefly: Thioflavin-T fluorescence.

B1: human dysferlin C2A domain with the pathogenic mutation W52R (C2A^W52R) (domain or fragment)
chain: MLRVFILYAENVHTPDTDISDAYCSAVFAGVKKRTKVIKNSVNPVWNEGFERDLKGIPLDQGSELHVVVKDHETMGRNRFLGEAKVPLREVLATPSLSASFNAPLLDTKKQPTGASLVLQVSYT
Turning to B1, the binding result is “binds”.

B2: human dysferlin C2A domain with the pathogenic mutation V67D (C2A^V67D) (domain or fragment)
chain: MLRVFILYAENVHTPDTDISDAYCSAVFAGVKKRTKVIKNSVNPVWNEGFEWDLKGIPLDQGSELHDVVKDHETMGRNRFLGEAKVPLREVLATPSLSASFNAPLLDTKKQPTGASLVLQVSYT
As for B2, the binding result was “binds”.
